One molecule from patent US20220305136A1 (ASCENDIS PHARMA ONCOLOGY DIVISION A S, published 2022) can be followed below.

The target in the experiment is T1, human CTLA-4 (AA Ala37-Ser160)-Fc Tag fusion protein (human, UniProt P16410 37-160).
T1 construct: range 37-160; Bought reagent, coated on ELISA wells as the capture protein; also called AcroBiosystem catalog no; CT4-H5255; not shown: Fc Tag of the bought fusion protein
T1 sequence (looked up): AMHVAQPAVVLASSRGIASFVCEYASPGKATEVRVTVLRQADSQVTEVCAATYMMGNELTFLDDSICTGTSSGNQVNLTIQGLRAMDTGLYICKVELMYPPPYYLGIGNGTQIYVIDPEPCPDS
The experiment can be described thus: in-house sandwich ELISA; CTLA-4-Fc coated on plate captures HHC^MET from rat plasma; read-out with rabbit anti-camelid VHH antibody-HRP. From the text: These solutions were used for the generation of a calibration curve.
(In general: In an ELISA, binding on a coated surface is turned into a signal by an enzyme label.)

B1: HHC^MET (VHH)
chain: EVQLVESGGGLVQAGGSLRLSCAASGGTFSFYGMGWFRQAPGKEQEFVADIRTSAGRTYYADSVKGRFTISRDNAKNTVYLQMNSLKPEDTAVYYCAAEMSGISGWDYWGQGTQVTVSSGGGGSGGGSEVQLVESGGGLVQAGGSLRLSCAASGGTFSFYGMGWFRQAPGKEQEFVADIRTSAGRTYYADSVKGRFTISRDNAKNTVYLQMNSLKPEDTAVYYCAAEMSGISGWDYWGQGTQVTVSS
notes: Custom made, expressed in E. coli; The assay measured free HHC^MET in rat plasma, either spiked in as standard or released from the hydrogel prodrug; also called HHC^MET-NH2
With B1, the binding result is “binds”.
